± gives the uncertainty stated by the source.
Assay: self-splicing fitness, log relative to wild type (ln ratio); higher = more splicing; Tetrahymena group I intron in knt gene, E. coli kanamycin selection, DiMSum; sequences stand for … in CUCUCU…GGAGGGAAAAGUUAUCAGGCAUGCACCUGGUAGCUAGUCUUUAAACCAAUAGAUUGCAUCGGUUUAAAAGGCAAGACCGUCAAAUUGCGGGAAAGGGGUCAACAGCCGUUCAGUACCAAGUCUCAGGGGAAACUUUGAGAUGGCCUUGCAAAGGGUAUGGUAAUAAGCUGACGGACAUGGUCCUAACCACGCAGCCAAGUCCUAAGUCAACAGAUCUUCUGUUGAUAUGGAUGCAGUUCACAGACUAAAUGUCGGUCGGGGAAGAUGUAUUCUUCUCAUAAGAUAUAGUCGGACCUCUCCUUAAUGGGAGCUAGCGGAUGAAGUGAUGCAACACUGGAGCCGCUGGGAACUAAUUUGUAUGCGAAAGUAUAUUGAUUAGUUUUGGAGUACUCGUGGUCG
In short: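 Six replicate transformations of E. coli BL21(DE3) with a pET-22b(+) library were grown overnight at 37°C or 30°C. The library randomised all eight P1ex-region intron nucleotides, the intron lying in the knt kanamycin-resistance gene, and plates were LB agar with or without 25 μg/mL kanamycin plus 100 μg/mL carbenicillin, 50 μM IPTG and 0.2% rhamnose. Pooled colonies were amplicon-sequenced on an Illumina HiSeq 2500, and fitness is the DiMSum error-weighted combination of wild-type-normalised replicate fold changes, kanamycin versus none.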

Sequence | self-splicing fitness (ln) (30 °C) | self-splicing fitness (ln) (37 °C)
GCGGAGCAAUAUUACGUGGA | -3.37 ± 0.38 | -2.38 ± 0.42
CUCCAGCAAUAUUACGAGUA | -2.58 ± 0.16 | -2.14 ± 0.14
GGCUAGCAAUAUUACGCAAG | -4 ± 0.46 | -0.63 ± 0.22
AGAAAGCAAUAUUACGGUGA | -0.65 ± 0.12 | -0.655 ± 0.14
GACCAGCAAUAUUACGUAGA | 0.284 ± 0.056 | 0.219 ± 0.074
GGUAAGCAAUAUUACGGUUU | -0.707 ± 0.056 | -0.0713 ± 0.083
AGGGAGCAAUAUUACGGCGA | -3.35 ± 0.4 | -2.62 ± 0.44
CACCAGCAAUAUUACGUUCC | -4.91 ± 0.41 | -2.45 ± 0.26
CAUUAGCAAUAUUACGGCUU | -4.46 ± 0.39 | -1.98 ± 0.33
UGCCAGCAAUAUUACGAACU | -2.14 ± 0.11 | -0.854 ± 0.13
GGUCAGCAAUAUUACGUCCA | -1.63 ± 0.11 | -1.02 ± 0.1
UUACAGCAAUAUUACGGUGA | -1.03 ± 0.099 | -0.122 ± 0.14
UGCAAGCAAUAUUACGGUGC | -3.59 ± 0.16 | -2.49 ± 0.19
GUUGAGCAAUAUUACGGACG |  | -1.42 ± 0.29
GAGGAGCAAUAUUACGUGGA | -3.86 ± 0.32 | -2.98 ± 0.29
CCGUAGCAAUAUUACGAACU | -3.64 ± 0.47 | -1.14 ± 0.28
GGCCAGCAAUAUUACGCGCA | -0.425 ± 0.1 | 0.666 ± 0.13
UUGAAGCAAUAUUACGGACC | -1.12 ± 0.14 | -0.125 ± 0.2
AAAGAGCAAUAUUACGAUCA | -3.02 ± 0.21 | -1.68 ± 0.14
UGCAAGCAAUAUUACGGCUA | 0.00387 ± 0.089 | -0.123 ± 0.1
GUUUAGCAAUAUUACGUGAG | -0.583 ± 0.062 | -0.124 ± 0.08
GUAAAGCAAUAUUACGCUCA | -0.138 ± 0.095 | 0.776 ± 0.14
CCAGAGCAAUAUUACGACCG | -0.53 ± 0.14 | -0.622 ± 0.22
AGACAGCAAUAUUACGAGCU | -1.22 ± 0.085 | -1.15 ± 0.11
CAAAAGCAAUAUUACGAACC | -1.63 ± 0.31 | -1.45 ± 0.28

Sequence | self-splicing fitness (ln) (30 °C) | self-splicing fitness (ln) (37 °C)
AAGCAGCAAUAUUACGCUAU | -2.17 ± 0.14 | -0.814 ± 0.13
UGAUAGCAAUAUUACGUGGG | -2.86 ± 0.17 | -0.621 ± 0.11
CUAAAGCAAUAUUACGUGUU | -4.79 ± 0.19 | -2.91 ± 0.16
CAGUAGCAAUAUUACGGUUC | -2.7 ± 0.25 | -2.53 ± 0.29
GUCAAGCAAUAUUACGGGAU | -5.19 ± 0.27 | -2.96 ± 0.21
UCUUAGCAAUAUUACGGACC |  | -1.91 ± 0.28
UCGUAGCAAUAUUACGUACU | -2.04 ± 0.23 | -1.27 ± 0.17
ACAUAGCAAUAUUACGCACG | -2.07 ± 0.2 | -1.01 ± 0.15
ACUUAGCAAUAUUACGCAUU | -1.27 ± 0.11 | -1.47 ± 0.17
UCCUAGCAAUAUUACGUAUC | -2.65 ± 0.14 | -2.44 ± 0.21
UGUGAGCAAUAUUACGCAGU |  | -1.74 ± 0.26
CCUAAGCAAUAUUACGCAUC | -2.22 ± 0.13 | -1.91 ± 0.13
AUCCAGCAAUAUUACGACCU | -1.86 ± 0.2 | 0.313 ± 0.18
UACUAGCAAUAUUACGCGAU | -2.84 ± 0.18 | -2.5 ± 0.18
CCCGAGCAAUAUUACGGUUA | -2.05 ± 0.1 | -1.36 ± 0.1
CGCCAGCAAUAUUACGGGAU | -3.96 ± 0.27 | -2.32 ± 0.28
UUUCAGCAAUAUUACGGAUA | -0.515 ± 0.11 | -0.565 ± 0.11
CCUAAGCAAUAUUACGACAG | -0.604 ± 0.081 | -1 ± 0.11
UCCAAGCAAUAUUACGAUGU | -1.37 ± 0.057 | -0.338 ± 0.082
AGGCAGCAAUAUUACGAUGA | -1.23 ± 0.13 | 0.113 ± 0.14
CGAUAGCAAUAUUACGUAAG | -0.163 ± 0.066 | 0.259 ± 0.082
GGUCAGCAAUAUUACGACUG | -0.394 ± 0.15 | -0.586 ± 0.2
UGCAAGCAAUAUUACGACAA | -0.541 ± 0.088 | 0.237 ± 0.1
UGAUAGCAAUAUUACGAAGA | -2.56 ± 0.26 | -1.97 ± 0.22
CAUUAGCAAUAUUACGUAGU | -3.66 ± 0.17 | -1.84 ± 0.17

Sequence | self-splicing fitness (ln) (30 °C) | self-splicing fitness (ln) (37 °C)
UAAAAGCAAUAUUACGAGAA | -2.18 ± 0.24 | -0.995 ± 0.16
CUCAAGCAAUAUUACGAACG | -1.54 ± 0.089 | -0.932 ± 0.12
GGUCAGCAAUAUUACGUGGA | -1.82 ± 0.14 | -1.58 ± 0.14
GUCGAGCAAUAUUACGACUA | -1.67 ± 0.23 | -1.28 ± 0.18
GUUCAGCAAUAUUACGGCUG | -3.59 ± 0.23 | -2.38 ± 0.26
GGGUAGCAAUAUUACGUCGA | -0.508 ± 0.14 | -0.243 ± 0.15
CCGCAGCAAUAUUACGGGUA | -4.25 ± 0.42 | -2.44 ± 0.22
GAUGAGCAAUAUUACGGAUG | -2.78 ± 0.19 | -2.89 ± 0.26
CCCAAGCAAUAUUACGGAGA |  | -1.03 ± 0.17
GGAAAGCAAUAUUACGAGAC | -3.69 ± 0.17 | -1.96 ± 0.11
GGGGAGCAAUAUUACGUCGC |  | -0.104 ± 0.44
GUCAAGCAAUAUUACGGGCG | -3.08 ± 0.17 | -0.583 ± 0.13
AGGUAGCAAUAUUACGAUAA | -1.65 ± 0.018 | -0.626 ± 0.035
AUAGAGCAAUAUUACGCGAG | -1.54 ± 0.11 | -1.26 ± 0.14
GUUGAGCAAUAUUACGACAG | -4.09 ± 0.36 | -2.49 ± 0.28
UAAAAGCAAUAUUACGCUAC | -3.07 ± 0.24 | 
UCAAAGCAAUAUUACGUGCU | -4.45 ± 0.3 | -2.93 ± 0.21
UACAAGCAAUAUUACGACCG | -0.233 ± 0.096 | 0.952 ± 0.13
UCCGAGCAAUAUUACGUUCG | -2.69 ± 0.49 | -1.78 ± 0.42
UCAAAGCAAUAUUACGUAUA | -3.27 ± 0.18 | -2.17 ± 0.17
AGCAAGCAAUAUUACGUUCA | -0.99 ± 0.081 | -0.464 ± 0.1
CAAAAGCAAUAUUACGACCC | -1.54 ± 0.15 | -1.72 ± 0.32
UGAAAGCAAUAUUACGGUCG | 0.0681 ± 0.051 | 0.137 ± 0.067
ACUUAGCAAUAUUACGGUUU | -1.23 ± 0.11 | -0.718 ± 0.16
AUUCAGCAAUAUUACGACGC | -0.246 ± 0.11 | 0.397 ± 0.14

Sequence | self-splicing fitness (ln) (30 °C) | self-splicing fitness (ln) (37 °C)
UCAGAGCAAUAUUACGGGCU | -4.78 ± 0.36 | -2.46 ± 0.25
CCGGAGCAAUAUUACGGACU |  | -1.56 ± 0.28
ACCAAGCAAUAUUACGUGAC | -3.55 ± 0.13 | -1.99 ± 0.11
AACAAGCAAUAUUACGAAAG | -2.14 ± 0.14 | -2.73 ± 0.22
GAAGAGCAAUAUUACGAAAU | -3.79 ± 0.24 | -1.95 ± 0.23
CCACAGCAAUAUUACGCAUC | -3.23 ± 0.19 | -2.31 ± 0.2
UUAUAGCAAUAUUACGCCAA |  | -0.44 ± 0.25
CGGGAGCAAUAUUACGGAAU | -4.07 ± 0.46 | -1.42 ± 0.43
CCUGAGCAAUAUUACGCUAA | -3.04 ± 0.2 | -2.88 ± 0.25
AAGAAGCAAUAUUACGCCAC |  | -2.7 ± 0.48
AAGGAGCAAUAUUACGAACU | -1.63 ± 0.15 | 0.581 ± 0.21
ACUCAGCAAUAUUACGACAU | -0.385 ± 0.011 | 0.0786 ± 0.032
UGCGAGCAAUAUUACGACGU | -2.92 ± 0.25 | -0.731 ± 0.17
GCUGAGCAAUAUUACGUACC | -1.54 ± 0.13 | -0.328 ± 0.18
UCCAAGCAAUAUUACGGGCU | -3.43 ± 0.14 | -1.95 ± 0.12
CCGAAGCAAUAUUACGCUAU |  | -2.24 ± 0.25
UCCCAGCAAUAUUACGCGAA | -2.11 ± 0.16 | -1.07 ± 0.14
CUAAAGCAAUAUUACGCUCA | -3.67 ± 0.25 | -2.39 ± 0.19
GACGAGCAAUAUUACGUCGG |  | -1.96 ± 0.34
GUGUAGCAAUAUUACGGAUG | -3.29 ± 0.41 | -0.59 ± 0.35
UCGCAGCAAUAUUACGUUAU | -3.3 ± 0.26 | -2.51 ± 0.24
UCGAAGCAAUAUUACGACUG | -1.11 ± 0.095 | -0.774 ± 0.13
GGGAAGCAAUAUUACGAGCG | -1.41 ± 0.12 | -0.447 ± 0.15

Reference: the supplement of paper PMC7877785
